For series [1], the target named is T1, untagged Zn(II)GB1-Ymbs38 (6x histidine tag removed by thrombin) (streptococcal; E. hirae, UniProt P06654 228-282; Q47839 108-145, Zn(II) bound by the four cysteines of the Cys-x-Cys-xxxx-Cys-x-Cys site).
T1 construct: also called untagged GB1-Ymbs38; untagged wild-type Zn(II)GB1-Ymbs38; not shown: vector residues left after thrombin cleavage at Leu-Val-Pro-Arg-Gly-Ser
Put plainly: HIS-Select nickel affinity resin binding assay, SDS-PAGE. From the text: Sigma® HlS-Select™ Nickel Affinity resin was used to assess dimerization between histidine-tagged and untagged proteins. Tagged and untagged versions of CopY were isolated as described above. The untagged version of GB1-Ymbs38 was isolated from the purified tagged protein by treatment with the Sigma® THROMBIN CleanCleave™ Kit. A thrombin cleavage site between the histidine tag and the start of the GB1-Ymbs38 protein allowed for easy removal of the tag. Dimerization reactions of tagged and untagged protein were performed in 50 mM Tris, pH 7.8, 300 mM NaCl. Approximately equilmolar amounts of each protein were mixed and incubated at 37° C. for 45 minutes to promote subunit interchange. The protein mixture was applied to 100 μL of drained HIS-Select resin that had been equilibrated in 50 mM Tris, pH 7.8, 300 mM NaCl in a Centricep spin column (Princeton Separations, Inc.) at room temperature. After 1 minute of constant agitation, the resin-protein mixture was centrifuged at 500×g for 30 seconds and the flow through was collected in a clean microfuge tube. The resin then was washed twice with 350 μL of 50 mM Tris, pH 7.8, 300 mM NaCl, and once with 50 mM Tris, pH 7.8, 300 mM NaCl, 20 mM imidazole. Each wash step was followed by centrifugation at 500×g for 30 seconds to remove excess liquid. […] Eluants were analyzed on 15% Tris-tricine SDS-PAGE stained with Coomassie brilliant blue R-250.

Series [2] concerns the molecule itself. Put plainly: ESI-MS, declustering voltage 10 V. The protocol:
A Waters Micromass ZMD quadrupole mass spectrometer was used for all experiments. The mass spectrometer was calibrated with cesium iodide. The temperature at the ion spray interface was kept at 40° C. A voltage of 2.0 kV at the tip of the inlet capillary needle was used to generate the electrospray. The cone voltage was set at 20 V and the extractor voltage was set at 10 V, resulting in a declustering voltage (ΔCS) of 10 V. Samples of protein were prepared in 10 mM ammonium acetate, pH 8.0, at concentrations of approximately 250 μM and were delivered at a flow rate of 50 μL/min into the ion source.
A 6× histidine tagged version of GB1 alone (lacking the Ymbs38 extension) was subjected to ESI-MS under the same conditions. […] Charged ions due to monomeric GB1 are shown labeled with the bolded numbers. The molecular mass derived from the +6 and +7 charge states is 8258 Da. (Calculated molecular mass of GB1 with the 6× histidine tag=8387 Da.).

Series [3] deals with the molecule itself. The series is described as follows: large zone size exclusion chromatography, fit to monomer-dimer model, 4 °C. The protocol:
The data points are the recorded experimental values of σw, at each loading concentration, and the solid line illustrates the best fit of the data to a monomer-dimer stoichiometric model. Non-linear least squares analysis was used to obtain the best fit according to the procedure. To verify that the data was fit to the appropriate stoichiometric model, a residual plot, which plots the difference between the observed fₘ and the calculated fₘ versus log [loaded protein], was prepared. The elution volume of each sample was converted to the weight average partition coefficient, which was plotted as a function of GB1-Ymbs38 concentration loaded onto the chromatography column. The Kd value was calculated from the best fit of the data to a monomer-dimer stoichiometric model, represented on the plot as a solid line. The plot shown corresponds to one of the three large zone chromatography trials performed on the apo-GB1-Ymbs38 protein variant.
The fitting of the data yielded the equilibrium association constants for each protein variant, which were subsequently converted to dissociation constants, Kd. Residual points were obtained by subtracting the fraction of monomer calculated by the best fit from the actual experimental value. Residuals were ploted against the log (loaded protein). […] Equilibrium association constants were used to calculate the Gibbs energy of assembly (ΔG°) through the equation: ΔG°=−RTlnKₐ₋Equilibrium association and dissociation constants, and the Gibbs free energy changes are shown in Table 6 for each GB1-Ymbs38 variant. A decrease in affinity between GB1-Ymbs38 monomers occurred upon mutation of the leucine and isoleucine residues or upon the removal of Zn(II), with the Zn(II) removal resulting in a larger decrease. The combination of Zn(II) removal and mutation of the aliphatic amino acids eliminated the ability of GB1-Ymbs38 monomer to self-associate.

Series [4] concerns the molecule itself. Put plainly: large zone size exclusion chromatography (Shodex KW 803), one trial dated 6/9/06; non-linear least squares fit of the fraction of monomer to a monomer-dimer model; cell H5 'Equilibrium constant'; sum of squares 0.025076973; no unit in the cell, loaded concentrations are in M and the text gives Ka in M^-1. How it is done:
A 5 mL aliquot of Zn(II)CopY was loaded onto a Shodex KW 803 column (total column volume is 15 mL) equilibrated in 50 mM Tris, pH 7.8, 150 mM NaCl, 0.05% β-mercaptoethanol. […] The measure of the apparent molecular weight of the protein at each concentration was calculated by correlating the elution volume of the leading edge with elution volumes of known molecular weight standards.
The plot of the change in apparent molecular weight versus the concentration of protein loaded onto the chromatography column provided an understanding of the process that occurred during the large zone chromatography experiment. The acquired data could be further manipulated in order to calculate the equilibrium dissociation constant for the GB1-Ymbs38 dimer. […] The data points are the recorded experimental values of σw, at each loading concentration, and the solid line illustrates the best fit of the data to a monomer-dimer stoichiometric model. […] To verify that the data was fit to the appropriate stoichiometric model, a residual plot, which plots the difference between the observed fₘ and the calculated fₘ versus log [loaded protein], was prepared. […] The Kd value was calculated from the best fit of the data to a monomer-dimer stoichiometric model, represented on the plot as a solid line.

Series [5] concerns the molecule itself. The series is described as follows: large zone size exclusion chromatography, one of three trials; best fit of the weight average partition coefficient against log [loaded protein] to a monomer-dimer model; self-association. The protocol: The measure of the apparent molecular weight of the protein at each concentration was calculated by correlating the elution volume of the leading edge with elution volumes of known molecular weight standards.
The plot of the change in apparent molecular weight versus the concentration of protein loaded onto the chromatography column provided an understanding of the process that occurred during the large zone chromatography experiment. The acquired data could be further manipulated in order to calculate the equilibrium dissociation constant for the GB1-Ymbs38 dimer. The elution volume, Vₑ, was converted to the weight average partition coefficient, σw, which represented the fraction of solvent volume within the gel matrix that was accessible to the protein. […] The data points are the recorded experimental values of σw, at each loading concentration, and the solid line illustrates the best fit of the data to a monomer-dimer stoichiometric model. Non-linear least squares analysis was used to obtain the best fit according to the procedure. To verify that the data was fit to the appropriate stoichiometric model, a residual plot, which plots the difference between the observed fₘ and the calculated fₘ versus log [loaded protein], was prepared. […] The Kd value was calculated from the best fit of the data to a monomer-dimer stoichiometric model, represented on the plot as a solid line. […]
(Size exclusion chromatography separates by hydrodynamic size, large species first.)

Where no end group is shown, it is not given here.

B1: 6x histidine tagged GB1 (lacking the Ymbs38 extension) (other, streptococcal, UniProt P06654 228-282, looked up)
chain: TYKLILNGKTLKGETTTEAVDAATAEKVFKQYANDNGVDGEWTYDDATKTFTVTE
modifications: also: 6x histidine tag, place not given here
notes: Calculated mass with tag 8387 Da (8.4 kDa); Control without the CopY part; also called 6xhis tagged GB1; not shown: 6x histidine tag
With B1, the values for the binding result in series [1] and in series [2] were “no binding” and “no binding (tested: approximately 250 µM)”, respectively.

B2: 6x histidine tagged Zn(II)GB1-Ymbs38 fusion protein (other, streptococcal;E. hirae, UniProt P06654 228-282, looked up)
chain: TYKLILNGKTLKGETTTEAVDAATAEKVFKQYANDNGVDGEWTYDDATKTFTVTEATLTQEDIQQIMKQLNKKEPVETIECNCIPGQCECKKQ
modifications: Zn(II) bound by the four cysteines of the Cys-x-Cys-xxxx-Cys-x-Cys site
notes: Calculated monomer mass 12.8 kDa (tagged); also called 6hGB1-Ymbs38; native Zn(II)GB1-Ymbs38; not shown: N-terminal 6xHis tag and thrombin site (Leu-Val-Pro-Arg-Gly-Ser) from the pET-14b vector
Usually Kd stands for a measure of binding affinity in units of concentration. For B2, in series [3], the Ka was found to be 37000 M⁻¹ and the Kd was determined as 28 µM. Also, the Ka in series [4] was 40200 M⁻¹.

B3: 6x histidine tagged apo (cysteine modified) GB1-Ymbs38 (other, streptococcal;E. hirae, UniProt P06654 228-282, looked up)
chain: B2 chain
modifications: Zn(II) removed (EDTA or acidification); the four cysteines of the metal binding motif carboxyamidomethylated with iodoacetamide
notes: Calculated mass of the carboxyamidomethylated protein 12,992 Da; also called apo-GB1-Ymbs38; Apo-GB1-Ymbs38; not shown: N-terminal 6xHis tag and thrombin site (Leu-Val-Pro-Arg-Gly-Ser) from the pET-14b vector
Consider B3, for which, in series [3], the Ka amounted to 10000 M⁻¹ and the Kd was 51 µM. This molecule yielded a Kd in series [5] of 54 µM.
